Source: paper PMC6291932

Molecular target: recombinant zika virus (ZIKV) non-structural 1 (NS1) protein (Zika virus)
Assay: SEC; Superdex 200 10/300, elution in 50 mM CAPS pH 11.0; supernatants of NS1 inclusion bodies subjected to 2.4 kbar/0.4 kbar at pH 10.0 to 12.5, with or without Arg

recombinant zika virus (ZIKV) non-structural 1 (NS1) protein (natural protein)
stoichiometry N: 2
